Experimental findings from article PMC2724277 are described below.

The target in this series is NusA-SKK (Escherichia coli, UniProt P0AFF6 132-348). Put plainly: fluorescence anisotropy.
Sequence of NusA-SKK (P0AFF6 132-348): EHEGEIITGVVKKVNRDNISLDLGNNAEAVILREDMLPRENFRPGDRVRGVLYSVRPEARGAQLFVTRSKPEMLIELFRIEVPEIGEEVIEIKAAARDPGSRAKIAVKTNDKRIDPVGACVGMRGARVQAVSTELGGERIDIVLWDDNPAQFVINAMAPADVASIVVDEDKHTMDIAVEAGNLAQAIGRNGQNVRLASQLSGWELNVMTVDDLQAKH

For AGCCCUGAAAAAGGGC (structured_RNA) [nutR boxB], the binding result was “no binding”. Same read-out and setting: the result for CGCUCUUA (ssRNA) [nutR boxA (same sequence as nutL boxA)] reads “no binding”. The term Kd denotes the free concentration of one partner at which half of the binding sites on the other are occupied at equilibrium, for simple one-to-one binding. The low end stands for tighter binding, the high end for weaker binding. As for CUCUCUUACACAUUCCA (ssRNA) [nutR boxA5-spacer], binding was characterised by a dissociation constant (Kd) of 124 ± 7 µM. Still for that read-out and setting: under CGCUCUUAAAAAUUAA (ssRNA) [nutL boxA-spacer] stands 71 ± 4 µM; under CGCUCUUACACAUUCCA (ssRNA) [nutR boxA-spacer], 126 ± 4 µM. Consider CGCUCUUAAAAAGGAA (ssRNA) [nutL boxA-spacer (mut)], for which the binding result was “no binding”. Molecule CACAUUCCA (ssRNA) [nutR spacer] displayed a Kd of 137 ± 17 µM. The molecule ACAAUUUA (ssRNA) [rrn spacer (III)] yielded a Kd of 71 ± 3.3 µM. Same read-out and setting: the result for CACUGCUCUUUAACAAUUUA (ssRNA) [rrn cac-boxA-spacer] reads 14 ± 0.2 µM.

Regarding AAAAUUAA (ssRNA) [nutL spacer], the equilibrium dissociation constant (Kd) was found to be 24 ± 2.2 µM. The molecule CGCUAUUACACAUUCCA (ssRNA) [nutR boxA16-spacer] yielded a dissociation constant Kd of 106 ± 4 µM.
